Reference: publication PMC3463842 (The EMBO Journal, 2012)

Biological target: ubiquitin^TAMRA (C-terminal TAMRA-labelled ubiquitin) (UniProt P0CG48 1-76, TAMRA label at the C-terminus)
Experiment: fluorescence polarisation

| Binder | Kd [µM] |
| --- | --- |
| HOIP^RBR-LDD (699–1072), as used in the FP assay (domain or fragment) CAVCGWALPHNRMQALTSCECTICPDCFRQHFTIALKEKHITDMVCPACGRPDLTDDTQLLSYFSTLDIQLRESLEPDAYALFHKKLTEGVLMRDPKFLWCAQCSFGFIYEREQLEATCPQCHQTFCVRCKRQWEEQHRGRSCEDFQNWKRMNDPEYQAQGLAMYLQENGIDCPKCKFSYALARGGCMHFHCTQCRHQFCSGCYNAFYAKNKCPEPNCRVKKSLHGHHPRDCLFYLRDWTALRLQKLLQDNNVMFNTEPPAGARAVPGGGCRVIEQKEVPNGLRDEACGKETPAGYAGLCQAHYKEYLVSLINAHSLDPATLYEVEELETATERYLHVRPQPLAGEDPPAYQARLLQKLTEEVPLGQSIPRRRK | 118 |
| HOIP^RBR-LDD C930A (domain or fragment) CAVCGWALPHNRMQALTSCECTICPDCFRQHFTIALKEKHITDMVCPACGRPDLTDDTQLLSYFSTLDIQLRESLEPDAYALFHKKLTEGVLMRDPKFLWCAQCSFGFIYEREQLEATCPQCHQTFCVRCKRQWEEQHRGRSCEDFQNWKRMNDPEYQAQGLAMYLQENGIDCPKCKFSYALARGGCMHFHCTQCRHQFCSGCYNAFYAKNKCPEPNCRVKKSLHGHHPRDALFYLRDWTALRLQKLLQDNNVMFNTEPPAGARAVPGGGCRVIEQKEVPNGLRDEACGKETPAGYAGLCQAHYKEYLVSLINAHSLDPATLYEVEELETATERYLHVRPQPLAGEDPPAYQARLLQKLTEEVPLGQSIPRRRK | 83 |
